Measurements reported in patent US20110038894A1.

B1: TAL6 peptide No. 16 of Table 2, … (peptide)
peptide: GGIEFILCL
B2: TAL6 peptide No. 8 of Table 2, … (peptide)
peptide: GYCVIVAAL
B3: TAL6 peptide No. 2 of Table 2, … (peptide)
peptide: HSLVGLALL
B4: TAL6 peptide No. 11 of Table 2, … (peptide)
peptide: QYLLDTSTW
B5: TAL6 peptide No. 4 of Table 2, … (peptide)
peptide: LYFPNGETKY
B6: TAL6 peptide No. 17 of Table 2, … (peptide)
peptide: GGIEFILCLI
B7: TAL6 peptide No. 13 of Table 2, … (peptide)
peptide: IVEWNVSLF
B8: TAL6 peptide No. 5 of Table 2, … (peptide)
peptide: KYASENHLS
B9: TAL6 peptide No. 9 of Table 2, … (peptide)
peptide: TFASTEGQY
B10: TAL6 peptide No. 12 of Table 2, … (peptide)
peptide: HIVEWNVSLF
B11: TAL6 peptide No. 1 of Table 2, … (peptide)
peptide: CYGKCARCI
B12: TAL6 peptide No. 6 of Table 2, … (peptide)
peptide: RFVWFFSGI
B13: TAL6 peptide No. 15 of Table 2, … (peptide)
peptide: EWNVSLFSIL
B14: TAL6 peptide No. 7 of Table 2, … (peptide)
peptide: FFSGIVGGGL
B15: TAL6 peptide No. 14 of Table 2, … (peptide)
peptide: EWNVSLFSI
B16: TAL6 peptide No. 10 of Table 2, … (peptide)
peptide: TFASTEGQYL

What follows are binders tested against human HLA-A24 and β2-microglobulin (human) (assay: MHC-peptide complex formation assay with human HLA-A24 and β2m (procedures of Example 1), sandwich ELISA, relative to positive control peptide).
For B1, the Relative binding (%) was 25.3%. Work on B2 yielded a Relative binding (%) of 118%. Binder B3 has a Relative binding (%) of 61.7%. For B4, the Relative binding (%) was 111%. For B5, the Relative binding (%) was 85%. B6 gave a Relative binding (%) of 14.8%. B7 gave a Relative binding (%) of 41%. Binder B8 has a Relative binding (%) of 64.6%. B9 was tested, and the Relative binding (%) was 49.2%. B10 was tested, and the Relative binding (%) was 28%. B11 was tested, and the Relative binding (%) was 126%. With B12 the Relative binding (%) was 91.9%. In the case of B13, the Relative binding (%) is reported as 22.2%. Binder B14 has a Relative binding (%) of 72.4%. In the case of B15, the Relative binding (%) is reported as 74%. B16 gave a Relative binding (%) of 116%.
